The results in this text go back to CN112125972A (SINOCELLTECH LTD, dated 2020).

The target in test [1] is T1, HPV18 VLP (Human papillomavirus type 18, UniProt P06794 62-568).
T1 construct: also called HPV18完整VLP蛋白
T1 sequence: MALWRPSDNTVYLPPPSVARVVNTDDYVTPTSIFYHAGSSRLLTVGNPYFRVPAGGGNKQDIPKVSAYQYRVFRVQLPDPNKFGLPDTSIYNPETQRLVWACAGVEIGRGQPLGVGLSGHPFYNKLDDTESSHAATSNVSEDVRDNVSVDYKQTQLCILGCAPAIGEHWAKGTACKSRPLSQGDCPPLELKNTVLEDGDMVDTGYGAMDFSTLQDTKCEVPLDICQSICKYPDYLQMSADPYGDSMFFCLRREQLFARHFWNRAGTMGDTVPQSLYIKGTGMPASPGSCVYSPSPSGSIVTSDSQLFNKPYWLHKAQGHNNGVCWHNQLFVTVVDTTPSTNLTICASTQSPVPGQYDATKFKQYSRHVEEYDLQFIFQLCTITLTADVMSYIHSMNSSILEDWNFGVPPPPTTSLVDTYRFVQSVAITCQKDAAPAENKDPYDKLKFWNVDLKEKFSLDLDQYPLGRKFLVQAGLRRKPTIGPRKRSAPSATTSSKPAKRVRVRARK
Briefly: double-antibody sandwich ELISA, R001 as capture and HRP-R001 as detection, mixture of HPV types.

Test [2] addresses T2, HPV31 VLP (Human papillomavirus type 31, UniProt P17388 1-504).
T2 construct: also called HPV31完整VLP蛋白
T2 sequence: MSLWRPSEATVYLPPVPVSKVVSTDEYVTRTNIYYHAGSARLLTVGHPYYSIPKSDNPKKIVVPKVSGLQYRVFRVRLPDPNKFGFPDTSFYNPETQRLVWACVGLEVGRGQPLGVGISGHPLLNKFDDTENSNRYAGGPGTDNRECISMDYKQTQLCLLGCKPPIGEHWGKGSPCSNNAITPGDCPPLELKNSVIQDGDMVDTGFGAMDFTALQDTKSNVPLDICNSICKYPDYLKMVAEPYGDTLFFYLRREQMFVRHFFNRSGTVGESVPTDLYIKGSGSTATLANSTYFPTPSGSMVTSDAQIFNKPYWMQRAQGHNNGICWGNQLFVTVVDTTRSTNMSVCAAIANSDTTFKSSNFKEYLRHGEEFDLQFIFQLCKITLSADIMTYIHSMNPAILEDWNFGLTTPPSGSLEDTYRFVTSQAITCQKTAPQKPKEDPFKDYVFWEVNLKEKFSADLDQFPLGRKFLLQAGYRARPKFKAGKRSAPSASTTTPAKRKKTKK
Described as above.

B1: HPV 16 R001 (antibody, V domains shown)
VH: QSVKESEGRLVTPGTPLTLTCTASGFTMSRYHMTWVRQAPGKGLEWIGIIYARNSDTYYANWAKGRFTISKTSTTVDLKITSPTIEDTATYFCARVDSDSSGAFDRLDLWGQGTLVTVSS
VL: DPMLTQTAASVEVAVGGTVTIKCQASQSIGGYLSWYQQKPGQRPKLLIYRASTLASGVPSRFKGSGSGTEYTLTFSGVECADAAAYYCQQGYTSSDINNAFGGGTEVVVK
notes: An HRP-labelled form served as detection antibody in the sandwich ELISA; also called HPV16.001; 单克隆抗体HPV 16 R001
Consider B1, for which the binding result in test [1] and in test [2] was “no binding (tested: 50ng/mL，25ng/mL，12.5ng/mL)” each time.
